Test results from patent publication US20260176324A1 (published 2026).
Residue numbers refer to the chain shown, from its start.

How the values were obtained:
[1] = target: T1, KRAS G12V peptide on HLA-A*11:01 (human); assay: multimer staining
T1 peptide: VVGAVGVGK

[2] = target: T1, KRAS G12V peptide on HLA-A*11:01; assay: cytokine release
[3] = target: T2, KRAS G12V peptide on HLA-A*11:01 (human); assay: multimer staining
T2 peptide: VVVGAVGVGK

[4] = target: T2, KRAS G12V peptide on HLA-A*11:01; assay: cytokine release

B1: nwTCR-2424 (TCR, V domains shown)
Valpha: QKEVEQNSGPLSVPEGAIASLNCTYSDRGSQSFFWYRQYSGKSPELIMFIYSNGDKEDGRFTAQLNKASQYVSLLIRDSQPSDSATYLCARKKTSYDKVIFGPGTSLSVIP
Vbeta: DSGVTQTPKHLITATGQRVTLRCSPRSGDLSVYWYQQSLDQGLQFLIQYYNGEERAKGNILERFSAQQFPDLHSELNLSSLELGDSALYFCASSLGDSEQFFGPGTRLTVL
B1: recognises [1].

B2: nwTCR-1708 (TCR, V domains shown)
Valpha: QKEVEQNSGPLSVPEGAIASLNCTYSDRGSQSFFWYRQYSGKSPELIMFIYSNGDKEDGRFTAQLNKASQYVSLLIRDSQPSDSATYLCAVNMPGNMLTFGGGTRLMVKP
Vbeta: DARVTQTPRDKVTEMGQEVTMRCQPILGHNTVFWYRQTMMQGLELLAYFRNRAPLDDSGMPKDRFSAEMPDATLATLKIQPSEPRDSAVYFCASGPEGLDNEQFFGPGTRLTVL
B2: recognises [2]; recognises [3].

B3: nwTCR-2308 (TCR, V domains shown)
Valpha: KDQVFQPSTVASSEGAVVEIFCNHSVSNAYNFFWYLHFPGCAPRLLVKGSKPSQQGRYNMTYERFSSSLLILQVREADAAVYYCAGSNDYKLSFGAGTTVTVRA
Vbeta: EAQVTQNPRYLITVTGKKLTVTCSQNMNHEYMSWYRQDPGLGLRQIYYSMNVEVTDKGDVPEGYKVSRKEKRNFPLILESPSPNQTSLYFCASSTSPYNEQFFGPGTRLTVL
B3: recognises [3].

B4: nwTCR-1862 (TCR, V domains shown)
Valpha: GEDVEQSLFLSVREGDSSVINCTYTDSSSTYLYWYKQEPGAGLQLLTYIFSNMDMKQDQRLTVLLNKKDKHLSLRIADTQTGDSAIYFCAERGTDSWGKLQFGAGTQVVVTP
Vbeta: GAVVSQHPSWVICKSGTSVKIECRSLDFQATTMFWYRQFPKQSLMLMATSNEGSKATYEQGVEKDKFLINHASLTLSTLTVTSAHPEDSSFYICSARFANYYEQYFGPGTRLTVT
B4: recognises [3].

B5: nwTCR-2563 (TCR, V domains shown)
Valpha: SQQGEEDPQALSIQEGENATMNCSYKTSINNLQWYRQNSGRGLVHLILIRSNEREKHSGRLRVTLDTSKKSSSLLITASRAADTASYFCATDRTGGYNKLIFGAGTRLAVHP
Vbeta: ETGVTQSPTHLIKTRGQQVTLRCSSQSGHNTVSWYQQALGQGPQFIFQYYREEENGRGNFPPRFSGLQFPNYSSELNVNALELDDSALYLCASSLQTGDEQYFGPGTRLTVT
B5: recognises [2]; recognises [3].

B6: nwTCR-0127 (TCR, V domains shown)
Valpha: DQQVKQNSPSLSVQEGRISILNCDYTNSMFDYFLWYKKYPAEGPTFLISISSIKDKNEDGRFTVFLNKSAKHLSLHIVPSQPGDSAVYFCAGYQGGYKLSFGAGTTVTVRA
Vbeta: EAQVTQNPRYLITVTGKKLTVTCSQNMNHEYMSWYRQDPGLGLRQIYYSMNVEVTDKGDVPEGYKVSRKEKRNFPLILESPSPNQTSLYFCASSTRDRDNEQFFGPGTRLTVL
B6: recognises [2]; recognises [3].

B7: nwTCR-2629 (TCR, V domains shown)
Valpha: AQSVTQLDSHVSVSEGTPVLLRCNYSSSYSPSLFWYVQHPNKGLQLLLKYTSAATLVKGINGFEAEFKKSETSFHLTKPSAHMSDAAEYFCVVSVWTDKLIFGTGTRLQVFP
Vbeta: GAVVSQHPSWVICKSGTSVKIECRSLDFQATTMFWYRQFPKQSLMLMATSNEGSKATYEQGVEKDKFLINHASLTLSTLTVTSAHPEDSSFYICSANRDFGIYEQYFGPGTRLTVT
B7: recognises [1].

B8: nwTCR-2241 (TCR, V domains shown)
Valpha: ELKVEQNPLFLSMQEGKNYTIYCNYSTTSDRLYWYRQDPGKSLESLFVLLSNGAVKQEGRLMASLDTKARLSTLHITAAVHDLSATYFCAVDKAAGNKLTFGGGTRVLVKP
Vbeta: GEEVAQTPKHLVRGEGQKAKLYCAPIKGHSYVFWYQQVLKNEFKFLISFQNENVFDETGMPKERFSAKCLPNSPCSLEIQATKLEDSAVYFCASSPHHRYEQYFGPGTRLTVT
B8: recognises [3].

B9: nwTCR-0126 (TCR, V domains shown)
Valpha: AQKVTQAQTEISVVEKEDVTLDCVYETRDTTYYLFWYKQPPSGELVFLIRRNSFDEQNEISGRYSWNFQKSTSSFNFTITASQVVDSAVYFCALSDPRYSGGGADGLTFGKGTHLIIQP
Vbeta: DSGVTQTPKHLITATGQRVTLRCSPRSGDLSVYWYQQSLDQGLQFLIQYYNGEERAKGNILERFSAQQFPDLHSELNLSSLELGDSALYFCASSPRGGDSILDTQYFGPGTRLTVL
B9: recognises [2]; recognises [3].

B10: nwTCR-0125 (TCR, V domains shown)
Valpha: AQKVTQAQTEISVVEKEDVTLDCVYETRDTTYYLFWYKQPPSGELVFLIRRNSFDEQNEISGRYSWNFQKSTSSFNFTITASQVVDSAVYFCARDQTGANNLFFGTGTRLTVIP
Vbeta: DVKVTQSSRYLVKRTGEKVFLECVQDMDHENMFWYRQDPGLGLRLIYFSYDVKMKEKGDIPEGYSVSREKKERFSLILESASTNQTSMYLCASSPPHLASGASTDTQYFGPGTRLTVL
B10: recognises [2]; recognises [3].

B11: nwTCR-2561 (TCR, V domains shown)
Valpha: GNSVTQMEGPVTLSEEAFLTINCTYTATGYPSLFWYVQYPGEGLQLLLKATKADDKGSNKGFEATYRKETTSFHLEKGSVQVSDSAVYFCALPAGGGADGLTFGKGTHLIIQP
Vbeta: GAGVSQSPSNKVTEKGKDVELRCDPISGHTALYWYRQSLGQGLEFLIYFQGNSAPDKSGLPSDRFSAERTGGSVSTLTIQRTQQEDSAVYLCASSFGTSGDQYEQYFGPGTRLTVT
B11: recognises [1].

B12: nwTCR-2310 (TCR, V domains shown)
Valpha: SQQGEEDPQALSIQEGENATMNCSYKTSINNLQWYRQNSGRGLVHLILIRSNEREKHSGRLRVTLDTSKKSSSLLITASRAADTASYFCATDGGGGADGLTFGKGTHLIIQP
Vbeta: DSGVTQTPKHLITATGQRVTLRCSPRSGDLSVYWYQQSLDQGLQFLIQYYNGEERAKGNILERFSAQQFPDLHSELNLSSLELGDSALYFCASSLHRDSDTEAFFGQGTRLTVV
B12: recognises [1].

B13: nwTCR-2390 (TCR, V domains shown)
Valpha: B12 Valpha with G93S
Vbeta: B12 Vbeta with L95H, H96G, D100T, T101D, E102T, A103Q, F104Y, Q107P, V114L
B13: recognises [1].

B14: nwTCR-2392 (TCR, V domains shown)
Valpha: DQQVKQNSPSLSVQEGRISILNCDYTNSMFDYFLWYKKYPAEGPTFLISISSIKDKNEDGRFTVFLNKSAKHLSLHIVPSQPGDSAVYFCAASYAGSARQLTFGSGTQLTVLP
Vbeta: GAGVSQSPSNKVTEKGKDVELRCDPISGHTALYWYRQRLGQGLEFLIYFQGNSAPDKSGLPSDRFSAERTGESVSTLTIQRTQQEDSAVYLCASSPGGNYGYTFGSGTRLTVV
B14: recognises [1].

B15: nwTCR-2595 (TCR, V domains shown)
Valpha: ILNVEQSPQSLHVQEGDSTNFTCSFPSSNFYALHWYRWETAKSPEALFVMTLNGDEKKKGRISATLNTKEGYSYLYIKGSQPEDSATYLCAFNNQGGKLIFGQGTELSVKP
Vbeta: EAQVTQNPRYLITVTGKKLTVTCSQNMNHEYMSWYRQDPGLGLRQIYYSMNVEVTDKGDVPEGYKVSRKEKRNFPLILESPSPNQTSLYFCASSSGTGGGAEAFFGQGTRLTVV
B15: recognises [4]; recognises [1].
